Experimental data published in PMC7174510.

Molecular target: Rac1 (African green monkey (endogenous in COS-1))

B1: oncogenic Dbl (domain or fragment)
chain: HVLNELIQTERVYVRELYTVLLGYRAEMDNPEMFDLMPPLLRNKKDILFGNMAEIYEFHNDIFLSSLENCAHAPERVGPCFLERKDDFQMYAKYCQNKPRSETIWRKYSECAFFQECQRKLKHRLRLDSYLLKPVQRITKYQLLLKELLKYSKDCEGSALLKKALDAMLDLLKSVNDSMHQIAINGYIGNLNELGKMIMQGGFSVWIGHKKGATKMKDLARFKPMQRHLFLYEKAIVFCKRRVESGEGSDRYPSYSFKHCWKMDEVGITEYVKGDNRKFEIWYGEKEEVYIVQASNVDVKMTWLKEIRNILLKQQELLTVKKRKQQDQLTERDKFQISLQQNDEKQQGAFISTEETELEHTSTVVEVCEAIASVQAEANTVWTEASQSAEISEEPAEWSSNYFYPTYDENEEENRPLMRPVSEMALLY
B1 gave a percent inhibition by 1A-116 (50 uM, 24 h) of the SRE-luciferase activity elicited by the activated GEF in COS-1 cells of 60%.

B2: Tiam1 C1199 (aa 391-1590) (domain or fragment)
chain: LEMSTTNSESLEEAGSAHSDEQSSGTLSSPGQSDILLTAAQGTVRKAGALAVKNFLVHKKNKKVESATRRKWKHYWVSLKGCTLFFYETDGRSGIDHNSVPKHAVWVENSIVQAVPEHPKKDFVFCLSNSLGDAFLFQTTSQTELENWITAIHSACAAAVARHHHKEDTLRLLKSEIKKLEQKIDMDEKMKKMGEMQLSSVTDSKKKKTILDQIFVWEQNLEQFQMDLFRFRCYLASLQGGELPNPKRLLAFASRPTKVAMGRLGIFSVSSFHALVAARTGEIGVRRRTQAMSRSASKRRSRFSSLWGLDTTSKKKQGRPTINQVFGEGTDAVKRSLEGIFDDTVPDGKREKEVVLPSVHQHNPDCDIWVHEYFTPSWFCLPNNQPALTVVRPGDTARDTLELICKTHQLDHSAHYLRLKFLMENRVQFYIPQPEEDIYELLYKEIEICPKVTQNIHIEKSDAAADNYGFLLSSVDEDGIRRLYVNSVKETGLASKKGLKAGDEILEINNRAAGTLNSSMLKDFLSQPSLGLLVRTYPEPEGGVELLENPPHRVDGPVDLGESPLAFLTSNPGHSLSSEQGSSAETAPEEGEGPDLESSDETDHSSKSTEQVAAFCRSLHEMSPSDSSPSPQDATSPQLATTRQLSDADKLRKVICELLETERTYVKDLNCLMERYLKPLQKETFLTQDELDVLFGNLTEMVEFQVEFLKTLEDGVRLVPDLEKLEKVDQFKKVLFSLGGSFLYYADRFKLYSAFCASHTKVPKVLVKAKTDTAFKAFLDAQNPRQQHSSTLESYLIKPIQRVLKYPLLLRELFALTDAESEEHYHLDVAIKTMNKVASHINEMQKIHEEFGAVFDQLIAEQTGEKKEVADLSMGDLLLHTSVIWLNPPASLGKWKKEPELAAFVFKTAVVLVYKDGSKQKKKLVGSHRLSIYEEWDPFRFRHMIPTEALQVRALPSADAEANAVCEIVHVKSESEGRPERVFHLCCSSPESRKDFLKSVHSILRDKHRRQLLKTESLPSAQQYVPFGGKRLCALKGARPAMSRAVSAPSKSLGRRRRRLARNRFTIDSDAISASSPEKEPQQPAGGGDTDRWVEEQFDLAQYEEQDDIKETDILSDDDEFCESLKGASVDRDLQEQLQAASISQRARGRRTLDSHASRMTQLKKQAALSGINGGLESASEEVIWVRREDFAPSRKLNTE
With B2 the percent inhibition by 1A-116 (50 uM, 24 h) of the SRE-luciferase activity elicited by the activated GEF in COS-1 cells was 75%.
